Molecular target: PCNA N107C labeled with Cy5 (human) (UniProt P12004)
Test: native gel or EMSA; protein-protein EMSA in solution, no DNA: 1 nM PCNA-Cy5 with increasing Polδ Exo^− or Lig1, 20 min at RT, 6% non-denaturing TBE-PAGE; bound PCNA fitted to a quadratic isotherm

Sequence of PCNA N107C labeled with Cy5 (human) (P12004 whole entry N107C): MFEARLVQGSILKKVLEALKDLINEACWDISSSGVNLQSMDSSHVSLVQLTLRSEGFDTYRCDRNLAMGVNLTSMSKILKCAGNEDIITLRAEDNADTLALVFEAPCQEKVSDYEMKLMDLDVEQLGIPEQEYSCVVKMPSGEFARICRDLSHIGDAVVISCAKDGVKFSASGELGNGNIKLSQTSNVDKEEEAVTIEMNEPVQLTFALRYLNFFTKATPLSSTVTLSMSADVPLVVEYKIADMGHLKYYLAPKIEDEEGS

**Q.** “Polδ Exo^− (D515V in p125) (from UniProt P28340 1-1107; Q9HCU8 1-107) (complex)” was tested. Which Kd did it give?
**A.** Its Kd is 15 nM.

Source: publication PMC9666535
